Patent US20070098715A1 (published 2007)
Numbering of substitutions follows the chain as printed. Where two headings read alike, the source gives them in different places.

B1: Ten-M2-199 (antibody, IgG2, V domains shown)
VH: QVQLVQSGAEVKKPGASVKVSCKASGYTFTNYDINWLRQASGQGLEWMGWMNPDSGNTGYAQRFQGRVTMTRDTSISTAYMELSSLRSEDTAVYYCARYISSLHYYYYGMDVWGQGTTVTVSS
VL: DIQMTQSPSSLSASVGDRVTITCRASQSINSYLNWYQQKPGKAPRLLIYAASNLQSGVPSRFSGSGSGTDFTLTISSLQPEDFSTYYCQQSHNTPLTFGGGTKVEIK
notes: Fully human mAb from IgG2 kappa XenoMouse (B cell clone); also called Mab199
B2: Ten-M2-7.2.1 (antibody, IgG2, V domains shown)
VH: QVQLQESGPGLVKPSETLSLTCTVSGGSISSYYWSWIRQPPGKGLEWIGYIYYSGNTNYNPSLKSRVTISVDTSKNQFSLKLSSVTAADTAVYYCARDIVVVPAARDYDYYYGMDVWGQGTTVTVSS
VL: EIVLTQFPGTLSLSPGESAPLSCRASQSVSSIDLVWYQQKPGQAPRLLIYGASSRATGIPDRFSVSGSGTDFTLTISRLEPEDFAVYYCQQYGSSPFTFGPGTKVDIK
notes: Hybridoma clone from IgG2 kappa XenoMouse; tested as hybridoma supernatant
B3: Ten-M2-179 (antibody, IgG2, V domains shown)
VH: QVQLVESGGGVVQPGRSLRLSCAASGFTFSSYGMHWVRQAPGKGLEWVAFIWYDGSNKYYADSVKGRFTISRDNSKNTLYLQMNSLRAEDTAVYYCARDGSSGWYFFDYWGQGTLVTVSS
VL: DIVMTQTPLSLSVTPGQPASISCKSSQSLLHSDRQTYLFWYLQKPGQPPQLLIYEVSNRFSGVPDRFSGSGSGTDFTLKISRVEAEDVGVYYCMQSIQLPPTFGPGTKVDIK
notes: Fully human mAb from IgG2 kappa XenoMouse (B cell clone); also called Mab179
B4: Ten-M2-8.1 (antibody, IgG2, V domains shown)
VH: QVQLQQWGAGLLKPSETLSLTCAVYGGSFSHYYWSWIRQPPGKGLEWIGEINHSGSTNYNPSLKSRVTISVDTSKNQFSLKLSSVTAADTAVYYCARDITMVRGLGGMDVWGQGTTVTVSS
VL: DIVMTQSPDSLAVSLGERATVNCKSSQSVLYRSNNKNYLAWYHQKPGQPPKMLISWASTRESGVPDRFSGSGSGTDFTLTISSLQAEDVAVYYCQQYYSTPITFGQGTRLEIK
notes: as for B2
B5: Ten-M2-120 (antibody, V domains shown)
VH: QVQLVESGGGVVQPGRSLRLSCAASGFTFSSYGMHWVRQAPGKGLEWVAVLWYDGSKKFYADSVKGRFTISRDNSKNTLYLQMNSLRAEDTALYYCARGPWNYYYYGMDVWGQGTTVTVSS
VL: EIVLTQSPGTLSLSPGERATLSCRASQSVISSYLAWYQQKPGQAPRLLIYNASNRATGIPDRFSGSGSGTDFTLTISRLEPEDFAVYYCQQYGSSPITFGQGTRLEIK
notes: also called Mab120
B6: Ten-M2-140 (antibody, IgG2, V domains shown)
VH: B5 VH with V2E, Y32H, V50I, L51I, Y80S, L93V
VL: B5 VL with L21F, S32N, A52T, N54S, D61G, S66G, S77T
notes: Fully human mAb from IgG2 kappa XenoMouse (B cell clone); also called Mab140; anti-Ten-M2 monoclonal antibody clone 140
B7: Ten-M2-188 (antibody, IgG2, V domains shown)
VH: QVQLVQSGAEVKKPGASVKVSCKASGYTFTGYYMHWVRQAPGQGLEWMGWINPNSGGTNSAQRFQGRVTMTRDTSIYTAYMELSRLRSDDTAVYYCAREYRSGRYYNGMDVWGQGTTVTVSS
VL: DIQLTQSPSSLSASVGDRVTITCRASQDISNYLAWYQQKPGKVPKLLIYAASTLQSGVPSRFSGSGSGTDFTLTISSLQPEDIATYSCQKYSSTPFTFGPGTKVDIK
notes: Fully human mAb from IgG2 kappa XenoMouse (B cell clone)
B8: Ten-M2-213 (antibody, IgG2, V domains shown)
VH: QVQLVQSGAEVKKPGASVKVSCKASGYTFTNYDINWVRQATGQGLEWMGWMNPNSGNTGYAQKFQGRVTMTRNTSIRTAYMELSSLRSEDTAVYYCARGPGGSFYYYYGMDVWGQGTTVTVSS
VL: DIQMTQSPSSLSASVGDRVTITCRASQSISSYLNWYQQKPGKAPNLLIYTASSLQSGVPSRFSGSGSGTVFTLTISSLQPEDFATYYCQQSSSTPFTFGPGTKVDFK
notes: Fully human mAb from IgG2 kappa XenoMouse (B cell clone); also called Mab 213
B9: Ten-M2-7.1.1 (antibody, IgG2, V domains shown)
VH: QVQLVESGGGVVQPGRSLRLSCAASGFTFSNYGMHWVRQAPGKGLEWVAVIPFDGSNKYYADSVKGRFTISRDNSKNTLYLQTNSLRAEDTAVYYCARNWGYFDYWGQGTLVTVSS
VL: DIVMTQSPLSLPVTPGEPASISCRTSQSLLQSNGYNYLDWYLQKPGQSPQLLIYLGSSRASGVPDRFSGSGSGTDFTLKISRVEAEDVGVYYCMQALQTLTFGGGTKVEIK
notes: as for B2

Legend:
[1] = target: T1, Ten-M2 endogenously expressed on human cancer cell lines (SNB-19 and others) (human, UniProt Q9NT68 1-2774); assay: flow cytometry on SNB-19 cells at 4° C., Alexa647 anti-human IgG secondary
T1 construct: whole, on cells; also called Ten-M2 (Cur007); CG50426

[2] = target: T2, Ten-M2 antigen (BiaCore analyte) (UniProt Q9NT68 399-2774)
[3] = target: T1, Ten-M2 endogenously expressed on human …; assay: cell-based or functional assay
[4] = target: T2, Ten-M2 antigen (BiaCore analyte); remark: listed apart in the source
[5] = target: T2, Ten-M2 antigen (BiaCore analyte); remark: listed apart in the source
[6] = target: T3, soluble Ten-M2 antigen (FIG. 1B), Ten-M2 amino acids 400-2733 with 6xHis-V5 tag (human, UniProt Q9NT68 399-2774); assay: ELISA, plate coated with soluble Ten-M2 antigen, hybridoma supernatant
T3 construct: also called Curagen 007-V5HIS; soluble Ten-M2 (Cur007) ECD

[7] = target: T2, Ten-M2 antigen (BiaCore analyte); remark: listed apart in the source

| Binder | Total Bound Fluorescence [1] | koff [2] [s⁻¹] | % Internalization (SNB-19 cells) [3] [%] | Internalized Fluorescence (SNB-19 cells, 37° C. 30 min, glutathione-resistant) [3] | kon [4] [M⁻¹ s⁻¹] | Kd [5] [nM] | binding result [6] | Kd [7] [nM] | koff [4] [s⁻¹] | Kd [4] [nM] |
| --- | --- | --- | --- | --- | --- | --- | --- | --- | --- | --- |
| B1 | 64.8 | ≤ 1e-06 | 46 | 32.9 | 23300 | ≤ 0.043 | – | – | – | – |
| B2 | – | – | – | – | – | – | binds | – | – | – |
| B3 | 89.6 | ≤ 1e-05 | 29 | 13.6 | 16300 | ≤ 0.61 | – | – | – | – |
| B4 | – | – | – | – | – | – | binds | – | – | – |
| B5 | 58.4 | – | 40 | 26.4 | 26200 | – | – | 18 | 0.000465 | – |
| B6 | 75.3 | – | 44 | 36.5 | 40100 | – | – | 15 | 0.000605 | – |
| B7 | 41.6 | – | 48 | 22.1 | – | – | – | – | – | – |
| B8 | 79.7 | – | 46 | 40.2 | 29000 | – | – | – | 3.22e-05 | 1.1 |
| B9 | – | – | – | – | – | – | binds | – | – | – |
